Laboratory results taken from article PMC4237994.

T1: Isl-1-Myc (UniProt P61372 1-349)
T1 sequence: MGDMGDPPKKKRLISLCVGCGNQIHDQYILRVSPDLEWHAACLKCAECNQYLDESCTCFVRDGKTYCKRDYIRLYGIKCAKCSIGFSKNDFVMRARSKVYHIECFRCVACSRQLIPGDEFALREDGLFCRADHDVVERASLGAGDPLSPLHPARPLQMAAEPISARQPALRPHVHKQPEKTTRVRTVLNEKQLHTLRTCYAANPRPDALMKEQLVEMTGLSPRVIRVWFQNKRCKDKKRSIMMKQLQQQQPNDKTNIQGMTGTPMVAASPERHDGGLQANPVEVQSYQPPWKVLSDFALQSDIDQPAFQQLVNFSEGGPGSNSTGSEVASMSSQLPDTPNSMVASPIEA

B1: Pdx1 Area I-4 (dsDNA)
DNA 1: GTATCACCCATAATGGATTTAGCCACCT
DNA 2: AGGTGGCTAAATCCATTATGGGTGATAC
B2: Pdx1 Area II-3 (dsDNA)
DNA 1: AATGCATGCAATTAGACCAGAAGTGCTAA
DNA 2: TTAGCACTTCTGGTCTAATTGCATGCATT
B3: Pdx1 Area IV-4 (dsDNA)
DNA 1: TTATTGCCTGCCTTTAATTGTACTTAT
DNA 2: ATAAGTACAATTAAAGGCAGGCAATAA

molecular target: T1, Isl-1-Myc; assay: competition

Binding result, binds:
B1, B2, B3
